Measurements from PMC7058617 (Signal Transduction and Targeted Therapy, 2020).

Assays:
[1] = target: human CD47 extracellular domain (CD47-ECD) (human) (UniProt Q08722); test: SPR; settings: bispecific antibody
[2] = target: PD-L1 extracellular domain (PD-L1-ECD) (UniProt Q9NZQ7); test: SPR; settings: bispecific antibody
[3] = target: T1, human CD47 extracellular domain (CD47-ECD) (human, UniProt Q08722, N-linked glycosylation observed at all five potential sites in the complex structure (N32 and N55 among them)); test: SPR; h4C1 and CD47-ECD proteins (WT, N32A, N55A); who was immobilised and the conditions are not given; settings: both partners purified
T1 construct: CD47, human, extracellular domain; also called WT CD47-ECD; human CD47-ECD antigen
T1 sequence (Q08722 19-141): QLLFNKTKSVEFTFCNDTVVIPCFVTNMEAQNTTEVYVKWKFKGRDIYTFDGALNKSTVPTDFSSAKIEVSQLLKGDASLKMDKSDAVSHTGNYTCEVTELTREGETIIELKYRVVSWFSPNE

human CD47 extracellular domain (CD47-ECD) (human), sequence (Q08722 19-141): as above
PD-L1 extracellular domain (PD-L1-ECD), sequence (Q9NZQ7 19-238): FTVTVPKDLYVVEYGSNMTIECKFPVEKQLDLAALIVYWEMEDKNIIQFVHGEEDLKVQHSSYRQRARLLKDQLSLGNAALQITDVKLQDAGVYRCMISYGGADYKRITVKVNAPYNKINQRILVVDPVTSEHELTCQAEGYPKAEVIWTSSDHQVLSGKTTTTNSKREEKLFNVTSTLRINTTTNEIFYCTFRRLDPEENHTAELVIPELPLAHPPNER

Molecule	Kd [1]	Kd [2]	Kd [3]
CD47/PD-L1 dual-targeting bispecific antibody (DVD-Ig format) (from UniProt P01861)	17.4 nM	0.74 nM	–
Humanized 4C1 (h4C1) monoclonal antibody (antibody, V domains shown, Humanised from the murine mAb m4C1 (raised in mice immunised with human CD47); also called h4C1 mAb) VH: QVQLVQSGAEVKKPGASVKVSCKASGYTFTSYVMHWVRQAPGQRLEWMGYINPYNDGTKYNEKFKGKATLTSDKSTSTAYMELSSLRSEDTAVYYCARTEGHFYVSWFAYWGQGTLVTVSS VL: DIQMTQSPSSLSASVGDRVTISCRTSQDISNYLNWYQQKPGKAPKLLIYYTSRLHSGVPSRFSGSGSGTDYTFTISSLQPEDIATYYCQQGNTLPFTFGQGTKLEIK	–	–	0.85 nM
